Experiment [1] concerns the target Dok2 pY345 peptide (human). Description: SPR.
For experiment [2], the target named is Dok1 pY362 peptide (human). Description: SPR.

Our source for the Kd values is PMC2999833.

Consider “Full-length recombinant His tagged human Nck1 (from UniProt P16333 1-377) (natural protein)”, for which the dissociation constant Kd in experiment [1] is 3500 nM; in experiment [2], 600 nM.
